Reference: the DeepSol protein solubility set

test: soluble on expression in E. coli; label from the status in PepcDB or PDB records

Sequence	soluble on expression in E. coli
MPPPLPYDAMRSVWTDTAAPAMATVPLAGHADCDVAIVGAGITGLSAALHLAERGLRACVLEARDPGWGASGRNGGQVIPGIKHDPDEILARHGRERGEPLLHMVGTAADTVFDLIDRYGLDCHPVRRGWIQPAHSRQALDAVLARARQWRARGADVAELDAGDVARRLGTGRFLGGWIDRRAGSIQPLRYTRGLLRAALSLGAAVHGQSPVVALQREGSRWLVRCAQGASVRAEHVLIATNAYTDDLWPGLRRTVIAANSFIVATGPLDPALAPAILPGGEVASDSRRLLLYFRRDADRRFILGGRGRFADPVSDADWNHLVRGARLLYPQLADTPFVHRWSGRVALTRDFVPHVHQPSPNLRIVLGYNGRGVALATQMGNYLAREISGGEPLPYPVTPIAPIPLHGLKRLYIGLAVAYYGLCDRISLEHHHHHH	not soluble
MPQPKKDKPDTPLRSDAQRNRERILAVATEELTHCANAPLSAIAKKAGVGQGTFYRNFPNREALVLEIYRYGMQQVAEAAPEMLATGEPDLALRQWMDRLAEFAMTKAGLADAIRLVTSAPGAPEKPRPTPLEDAAELLLRANHEAGTIRPGVTGDDFFLVLGGLWLIDPGENWQPRVTRFLDLVMDGLRAGAPGR	not soluble
MPQQNYLDELTPAFTSLLAIKEASRCLLCHDAPCSQACPAQTDPGKFIRSIYFRNFKGAAETIRENNALGAVCARVCPTEKLCQSGCTRAGVDAPIDIGRLQRFVTDFEQQTGMEIYQPGTKTLGKVAIIGAGPAGLQASVTLTNQGYDVTIYEKEAHPGGWLRNGIPQFRLPQSVLDAEIARIEKMGVTIKCNNEVGNTLTLEQLKAENRAVLVTVGLSSGSGLPLFEHSDVEIAVDFLQRARQAQGDISIPQSALIIGGGDVAMDVASTLKVLGCQAVTCVAREELDEFPASEKEFTSARELGVSIIDGFTPVAVEGNKVTFKHVRLSGELTMAADKIILAVGQHARLDAFAELEPQRNTIKTQNYQTRDPQVFAAGDIVEGDKTVVYAVKTGKEAAEAIHHYLEGACSC	not soluble
MPRFAANLSMMFTEVPFIERFAAARKAGFDAVEFLFPYNYSTLQIQKQLEQNHLTLALFNTAPGDINAGEWGLSALPGREHEAHADIDLALEYALALNCEQVHVMAGVVPAGEDAERYRAVFIDNIRYAADRFAPHGKRILVEALSPGVKPHYLFSSQYQALAIVEEVARDNVFIQLDTFHAQKVDGNLTHLIRDYAGKYAHVQIAGLPDRHEPDDGEINYPWLFRLFDEVGYQGWIGCEYKPRGLTEEGLGWFDAWRGS	soluble
MPRRIDKVSSMTKGHITMSMNKLNLFNIYRKDPLQYFGKTLYQQKWAAKTETRNYHGQQIKEKRFKNVLFDSNLKTYSQLDASLKGHDVAPTPITLQTYGTLEKRLEIALFRSMFASSVRQARQFILGGYVKVNGVVIKHPSFPLQSGDVFSVDPEKVLFALGKTKPSLEKALSVDKKQIKKWNNYVFEAKKNPEKIWDLKQNKPDSLDTLKQVEDFEKQKKSVQNAQKLMKIQQNQVTRQSILQEIIQLGNAASEPASLETFNKYGDVARTKCLQIYQTLTNKNHPITKDPSTKNIEGFLAKDENKSPEEKHEVRLINSTLRELQSSEWERIRIQFENFEEGTDTKFFQTSFAKALRGVPKLNKEEILEDESKAKVQLPWQKHLFGRKDPSRSYFTPWTPRPFLGAFAILPSHIEISFDTCHAIYLRDPVARPGHSEVISPFPDHVHERAYMYYVRKGKS	not soluble
MPRVGIITSDFKFYHDVIKQLRLWKIPFVSLDLKGNIPDDVVVILSSIRDDIDLPDQVKAQDGLDGIRRAIPRLLNKTMFKDLTIGIDPGPKPGIAVFGDDVLLEAFECPTVFSVRKFVDSISMSYSYENITIKIGNGDRPNRDIIMNRLSDVDISIEVVNEKNTSTPHKIHDNALSAARIAQINGLYPIKRIPVKFSRKNVYEKEFVTLKNVIENAAGTEGRSSNST	not soluble
MPSAHSVKLRPLEREDLRYVHQLDNNASVMRYWFEEPYEAFVELSDLYDKHIHDQSERRFVVECDGEKAGLVELVEINHVHRRAEFQIIISPEYQGKGLATRAAKLAMDYGFTVLNLYKLYLIVDKENEKAIHIYRKLGFSVEGELMHEFFINGQYRNAIRMCIFQHQYLAEHKTPGQTLLKPTAQ	soluble
MPSDIPKTRLETEGTTQHTSPLRATCHRVFSLNAGRKAGEQYHLFCTSKSDNSTCLDGPARVVLRDILDNLYNRISSMPRANEIKKGMVLNYNGKLLIVKDIDIQSPTARGAATLYKMRFSDVRTGLKVEERFKGDDIVDTVTLSRRGVDFSYVDGNEYVFMDKEDYTPYTFTKDQIEEELLFMPEGGMPDMQVLTWDGQLLALELPQTVDLEIVETAPGIKGASASARNKPATLSTGLVIQVPEYLSAGEKIRIHIEERRYMGRAD	not soluble
MPSIYKSVTINTSKEMMCFSDFPVPDHFPNYMHNSKLMDYFGMYATHFGLLNYIRFKTEVQSVRKHPDFSINGQWDVVVETEEKQETLVFDGVLVCSGHHTDPYLPLQSFPGIEKFEGCYFHSREYKSPEDFSGKRIIVIGIGNSGVDIAVELSRVAKQI	not soluble
MPSKQVGWWTMSEHTNDEVQPTALSGNDAVNRAAEQWKESAHRNIPGLGDLPIPDDTANLREGPNLHDGLLALLPLVGVWRGTGHADTAEEGQYAFGQQITFAHDGENYLTYESRIWKLDDEGNSTDLDYRESGFWRISLKDEIEVVLTHSTGVAEIFYGEPMNERAWQIESASTMVTAQGPATLGPGKRLYGLMPNNNLGWVDERMVDGEMRPRMSAELSRVIGLEHHHHHH	soluble
MPSLSKEAALVHDALVARGLETPLRPPMDELDNETRKSLIAGHMTEIMQLLNLDLSDDSLMETPHRIAKMYVDEIFAGLDYANFPKITLIENKMKVDEMVTVRDITLTSTCEHHFVTIDGKATVAYIPKDSVIGLSKINRIVQFFAQRPQVQERLTQQILTALQTLLGTNNVAVSIDAVHYCVKARGIRDATSATTTTSLGGLFKSSQNTRQEFLRAVRHHP	not soluble
MPSNIRESDASCLEMIRSIIRSTADDNSKWVEIFVDFENAQPTDEEREIYNMAEEVLNDCDLVLADVSSYGNGCYAERNQLKNDSDTQALKVLMTKLEPFVARTCSYYEHVAKIEKIVPIILWELSSGPLPLEEQLANKQSIAKQFARLIGFVLDFDVVKMRTAQITNDYSYYRRAKHIVYQDFEDQGVPELPQVQMFLCEGNPMLKALCNGVDSYMQTHQSLPINNTTDVFVTIINVCRFMLANDECLARLTDSSKHLCCRVMTGLVILFDHVDQNGAFVSNSSIDMRDVVRLIKLNTTPEQSDCLLAGLRFTTKHYNDSSTPKSLRHLIEVK	soluble
MPSRLSLIAALLLPLAVQAEPADTRALLADSLADSQAQVEAAEQAMRRSENKAVQLYAKRVLTEQQEFDHQLRALAGEKALALPSPRQTERQAAAPGGFDERGFLDAQIRQQDRLVARFEGIARDSADPDLRRFADEWLARFYHHRELADQLRSGRAD	not soluble
MPSRQLEDPGAGTPSPVRLHALAGFQQRALCHALTFPSLQRLVYSMCSLCQEENEDMVPDALQQNPGAFRLAPALPARPHRGLSTFPGAEHCLRASPKTTLSGGFFVAVIERVEMPT	not soluble
MPSWREKHEKIVQSKILVIGAGGIGCELLKNLAVTGFRKVHVIDLDTIDISNLNRQFLFRKEHVSSSKAATATQVVKQFCPQIELTFDHDSIFEKKYNMEFFQAYDIVLNALDNRAARNYVNRMCHAANRPLIDSGSGGYFGQVSVIMRGKTECYECVDKPVQQTTYPGCTIRNTPSEHIHCTVWAKHVFNQLFGEVDIDDDVSPDMDAVDPDNTEAVTTEKEKEAMKEEPAPVGTRQWAESVDYDAAKVFDKLFLHDIEYLCKMEHLWKQRKRPSPLEFHTASSTGGEPQSLCDAQRDDTSIWTLSTCAKVFSTCIQELLEQIRAEPDVKLAFDKDHAIIMSFVAACANIRAKIFGIPMKSQFDIKAMAGNIIPAIASTNAIVAGIIVTEAVRVIEGSTVICNSSIATTQSNPRGRVRFYGFFN	not soluble
MPTISRSALVMYSVDQMYQLINDIPAYPKFLPDCNDSKVIDQDEQSVTAALLVSKGGLSKWFTTKNTLISNEKIHLSLVDGPFKKLEGYWLLTPLSDEACKVSLELEYEFSNKLVSLAFGKVFGHFSNSLVQVFTQRAKEIYGVNVLEHHHHHH	soluble
MPTLQAAMFLEKDMQKNTLWFDSLSMQDVDKVGGKNASLGEMVSNLANAGVSVPNGFATTAYAFNQFLDFEGLDERIHQLLDELDVDDVDALRKTGATIRQWILQAPFPAELEQEIRTNYNQLIDGNSELSVAVRSSATAEDLPDASFAGQQETFLNVKGIDAVLEATKHVYASLFNDRAISYRVHQGFDHRGIALSAGIQRMVRSDKAASGVMFTLDTESGFDKVVFITAAWGLGEMVVQGAVNPDEFYVHKPLLEAGYPAIVKKTFGSKLSKMIYANSQVIGKQVEVVDTSAHERNQFSLTDAEIQELAKQALIIEKHYQRPMDIEWAKDGIDGKLYIVQARPETVCSQSEQNVIERYELSHKASVLLEGRAIGQRIGSGTVRLVDSLDQMSLVQQGDVLVTDMTDPDWEPVMKKAAAIVTNRGGRTCHAAIIARELGIPAIVGCGDATRRLSDGAQVTVSCAEGETGYVYAGQLDFAVRRSSVDELPMLPTKVMMNVGNPDRAFDFAQIPNEGVGLARLEFIINKMIGIHPKALLNFDTQSAELQTQILDRIRGYRDPIDFYVSKLTEGIATIAAAFWPKRVIVRMSDFKSNEYSNLLGGSEFEPHEENPMLGFRGASRYISPVFEDCFELETQAIKRVRHEMGLKNVEVMIPFVRTTGEAEAVIDLLAKFGLRRGEQGLKVIMMCELPSNAVLADEFLKFFDGFSIGSNDMTQLTLGLDRDSGDVAHLFDERNPAVKIMLKMAIDAATRAGKYVGICGQGPSDHDDLAQWLMEQGISSVSLNPDTVIDTWLKLGAVSKC	not soluble
MPTLRFRQKVVHKLNNSGIIARPKTVIHPIKMKTTLIAAAEVDRLETWQRYTSNMCHGCHSTCCTLPVEVKIKDLIRIGVVDEFEKDEPPKNVAKRLQKEGIIERFNQKSGIFTLTRMSNDDCMYLDRKSRLCTIYDKRPDTCRNHPKVGPRPGYCAYKPKVVGRLEHHHHHH	not soluble
MPTNTFFHLPEEKQQRLLDAAQIEFSRHSLQEASIANIVKLAGIPRGSFYQYFENKEDLYFYYFATLRKNSERDLEKQIIAENGDLIEAMDVYFSKMIVEVLTGENASFYRNLFVNMDYRASRRVTDNLATGEEEKNRKQHCHKHRGRKGHAAYAEHLYQIIDHSKLTIETPKEFTWFMQTAMHAVFSTIVDGYRQQRENTAYDSTEAVKQLKMKLSWLKNGAYK	not soluble
MPTPPAASSLAAQMGESPAPLYARVKHMIALQIQNGTWPPHHRVPSESELVTQLGFSRMTINRALRELTVEGLLVRMQGVGTFVAEPKSQSALFEVHNIADEIAARGHRHTCKVMVLKEEAAGSERALALDMREGQRVFHSLIVHFENDIPVQIEDRFVNAQVAPDYLKQDFTLQTPYAYLSQVAPLTEGEHVVEAILAEADECKLLQIDAGEPCLLIRRRTWSGRQPVTAARLIHPGSRHRLEGRFTK	not soluble
MPTVLRWTRTMCKRPTCRVRQAWLVLPITGRWPSGGVSMKHACMLDSALPKPSQHSLRRQLNAIKREQFPWMSEVTKNAPQMAIIQLGRAFQNFFAGRAKYPKFRKKGMHDRFTLTNDQFDLEASRIRIPRLGWVRMRETLRFAGKIMLATVSRVAGRWFVSITVDVPDPSHLPQAENQGTVGVDLGVLVLATLSTGETVCGPRPHRALLGRVCRLSRSVLRKVKGSANRHKAKATLANLHARIAAIRLDALHTLTSDLTRRFHTIGIENLNVKGMLRNRHLARSIADIGFFEFRRQLEYKAMMRGGQVVVANRFFASSKRCLTCGHTLNELPLSVRQWACPACGARHDRDVNAAVNLKNMAVSSTVSACGEEGAGPRRKTAVGEAGSQLLEHHHHHH	not soluble
